Reference: article PMC10244618
Several values for one entry are separate records, joined by “and”; a condition that tells them apart may be missing. Identical values can stand only once.

B1: NF2 (merlin) isoform 7, human, full length (507 aa, lacks exons 2-3 = isoform-1 residues 39-121; exon-16 C-terminus), P35240-4 (parent)
chain: MAGAIASRMSFSSLKRKQPKTFTVRIVTMDAEMEFNCEVKKQILDEKIYCPPEASVLLASYAVQAKYGDYDPSVHKRGFLAQEELLPKRVINLYQMTPEMWEERITAWYAEHRGRARDEAEMEYLKIAQDLEMYGVNYFAIRNKKGTELLLGVDALGLHIYDPENRLTPKISFPWNEIRNISYSDKEFTIKPLDKKIDVFKFNSSKLRVNKLILQLCIGNHDLFMRRRKADSLEVQQMKAQAREEKARKQMERQRLAREKQMREEAERTRDELERRLLQMKEEATMANEALMRSEETADLLAEKAQITEEEAKLLAQKAAEAEQEMQRIKATAIRTEEEKRLMEQKVLEAEVLALKMAEESERRAKEADQLKQDLQEAREAERRAKQKLLEIATKPTYPPMNPIPAPLPPDIPSFNLIGDSLSFDFKDTDMKRLSMEIEKEKVEYMEKSKHLQEQLNELKTEIEALKLKERETALDILHNENSDRGGSSKHNTIKKPQAQGRRPICI

Variants of: B1
Test: reverse yeast two-hybrid deep mutational scan (rY2H-seq): NF2 isoform 7 mutant library as bait mated with wild-type prey strains; selection on medium lacking adenine for non-interacting pairs; NextSeq paired-end sequencing; enrichment vs …
Conditions: yeast diploids after mating (RBait_S3 x RPrey_S3), 30 °C, selection for reporter genes on NB agar, HIGHER = WEAKER BINDING (the opposite of display enrichments): higher = stronger loss of interaction: reverse Y2H selects yeast in which bait and prey do NOT interact (growth without adenine), so a …, hits-only table, scale: rY2H score, numbering: uniprot, sequence starts at 1
[1] = with EMILIN1 (elastin microfibril interfacer 1), Q9Y6C2, human ABL2 co-expressed as the kinase-dead K35M mutant …
[2] = with EMILIN1 (elastin microfibril interfacer 1), Q9Y6C2, human tyrosine kinase ABL2 co-expressed as the active kinase …
[3] = with KDM1A (lysine-specific histone demethylase 1A; the table's label AOF2 is a gene synonym of KDM1A), O60341, human ABL2 co-expressed as the kinase-dead K35M mutant …
[4] = with KDM1A (lysine-specific histone demethylase 1A; the table's label AOF2 is a gene synonym of KDM1A), O60341, human tyrosine kinase ABL2 co-expressed as the active kinase …
[5] = with NF2 C-terminal domain (wild type; homomeric NF2-NF2 interaction), P35240, human ABL2 co-expressed as the kinase-dead K35M mutant …, partner unresolved
[6] = with PIK3R3 (phosphatidylinositol 3-kinase regulatory subunit gamma), Q92569, human tyrosine kinase ABL2 co-expressed as the active kinase …

Variant | enrichment [1] | enrichment [2] | enrichment [3] | enrichment [4] | enrichment [5] | enrichment [6]
V56C | 2.08 | 3.78 and 9.66 | 7.69 and 9.8 | 6.5 | 3.78 | 11.6 and 11.3
Y61L | 3.12 | 5.18 | 9.24 | 7.08 | 3.55 | 4.61 and 3.92
E267A | 2.15 |  |  |  |  | 
A59L | 10.7 and 8.14 |  | 15.4 | 29 | 7.54 | 25.9
Q327Y | 2.5 |  |  |  |  | 
M343K | 3.5 | 1.81 |  | 3.6 |  | 
L151S | 3.66 |  | 7.87 | 6.8 | 12.3 | 
A331L | 2.6 and 2.58 | 3.27 | 4.61 and 1.64 | 5.02 |  | 
R268P | 1.95 |  |  |  |  | 
K246L | 3.03 and 1.45 |  |  |  |  | 
G78A | 3.44 |  |  |  |  | 
E339L | 1.74 |  |  |  | 1.65 | 
M122E | 4.7 |  |  |  |  | 
E344G | 6.34 and 11.1 |  | 10.3 |  |  | 
M251A | 3.87 and 2.36 | 6.14 | 4.5 | 2.61 |  | 4.21
M292S | 1.52 |  | 1.74 |  | 1.49 | 1.46
L149A | 4.26 | 2.53 and 5.08 |  |  | 2.75 and 3.85 | 17.7
E325L | 2.13 |  | 5.66 |  | 3.02 | 
L315E | 3.8 |  | 2.62 and 6.59 |  |  | 
D162L | 3.3 |  | 2.41 |  | 2.21 | 
T147E | 4.29 |  |  |  |  | 
L57E | 1.73 |  |  |  |  | 
Y161K | 4.91 |  | 3.06 | 8.45 |  | 5.71
K246A | 2.24 |  |  |  |  | 
E339K | 4.07 and 1.56 | 3.86 | 2.92 | 2.13 | 1.45 | 1.62
N165E | 5.14 and 5.74 | 3.48 and 2.42 | 11.1 and 8.25 | 4.76 and 3.86 | 5.73 | 7.65 and 9.27

Variant | enrichment [1] | enrichment [2] | enrichment [3] | enrichment [4] | enrichment [5] | enrichment [6]
I329L | 3 | 2.26 and 2.09 | 4.07 | 3.51 | 1.91 and 3.47 | 
K15A | 6.29 | 6.35 and 3.55 | 13.9 | 2.57 |  | 7.57
V74C | 2.3 |  | 2.58 |  |  | 1.98
K318T | 1.91 |  |  | 1.54 |  | 
Q279K | 2.01 | 2.32 and 4.35 | 6.01 |  |  | 7.05
A155L | 2.92 and 3.34 |  |  |  |  | 
R263T | 1.89 |  |  |  |  | 
E164K | 2.27 |  |  |  |  | 2.53
K88R | 1.95 | 2.74 |  |  |  | 
D162K | 1.74 |  |  |  |  | 
R335A | 35.1 | 43.3 | 67.9 and 31.8 |  |  | 
N165A | 3.8 and 4.08 | 5.59 and 4.51 | 5.23 and 4.34 | 11.8 | 3.7 and 6.3 | 
R293A | 1.56 | 4.55 and 5.13 | 2.38 | 6.57 | 1.81 | 10.8 and 3.63
T97I | 1.62 |  |  | 1.95 |  | 
E339A | 2.51 | 1.94 |  |  |  | 
P87S | 1.62 | 1.61 | 2.56 | 3.13 |  | 2.86
R268K | 3.47 |  |  |  |  | 
N176L | 7.14 | 1.82 |  |  | 10.6 | 1.81
L151K | 3.05 |  |  |  |  | 
L214E | 8.22 | 5.18 and 15.2 | 13.4 |  | 2.48 | 30
P52E | 9.88 |  |  |  |  | 
R293E | 2.19 | 2.64 |  |  |  | 
M292A | 6.8 |  |  |  |  | 
T308K | 2.66 and 1.9 | 2.2 and 3.37 | 2.96 | 2.24 | 5.45 | 
A333K | 1.75 | 5.66 | 4.26 and 3.03 |  |  | 
L156P | 2.26 |  | 3.08 and 3.61 | 1.95 | 3.25 and 1.98 | 

Further lines, results first:

enrichment [1] | enrichment [2] | enrichment [3] | enrichment [4] | enrichment [5] | enrichment [6] | Variant
5.56 |  |  |  | 4.21 |  | A378K
2.46 |  | 1.48 and 1.82 | 3.03 | 3.35 and 2.55 | 1.63 | P409L
3.04 | 6.55 |  | 2.39 | 2.55 and 4.04 | 3.17 | L375E
1.52 |  |  |  | 2.16 |  | I507R
1.88 | 2.88 |  |  |  |  | P413L
1.67 |  | 1.67 |  |  |  | I418K
5.14 | 3.53 |  |  |  | 3.96 | P403R
8.86 | 3.97 | 6.43 |  |  | 5.49 | A406I
5.53 and 3.24 | 4.46 and 4.21 | 1.68 |  |  |  | K372E
7.48 and 4.82 | 14.3 | 11.8 | 14 |  |  | A406S
5.91 |  |  |  |  |  | K490E
2.63 |  |  |  |  |  | D425A
2.04 |  |  |  |  | 2.23 | M431A
2.05 | 2.49 |  |  |  |  | L371K
3.4 |  |  |  | 5.67 | 10.3 | G486K
2.77 | 1.79 and 2.41 |  |  | 1.47 and 2.48 and 1.86 |  | E382K
3.23 | 1.72 | 1.77 and 4.25 | 2.45 | 1.43 |  | P399E

enrichment [1] | enrichment [2] | enrichment [3] | enrichment [4] | enrichment [5] | enrichment [6] | Variant
2.11 |  |  |  |  |  | R379L
5.29 | 2.04 |  |  |  |  | H491A
1.6 |  | 2.38 |  | 1.76 | 1.85 and 3.91 | P405E
1.46 | 1.83 |  | 2.07 |  | 5.44 | Q387L
4.18 and 2.17 | 2.34 and 1.8 |  | 2.31 |  |  | E344L
3.38 |  |  |  |  |  | L355K
1.95 | 4.8 and 3.36 |  |  |  |  | A350K
3.02 |  |  |  |  |  | E360K
1.51 |  | 1.6 |  |  |  | L353W
3.03 | 2.65 | 2.88 |  |  |  | P396L
2.98 |  |  |  |  |  | K427T
3.21 |  | 1.93 |  |  |  | L422K
2.64 | 4.87 | 11.9 and 4.42 |  | 4.53 |  | A365E
3.01 | 3.29 | 4.93 |  |  |  | L348S
1.78 and 4.12 | 3.82 and 2.77 | 1.57 |  |  | 4.06 | E344K
3.67 |  |  |  |  |  | H479E
